Measurements from publication PMC11371640, “Structural deficits in key domains of Shank2 lead to alterations in postsynaptic nanoclusters and to a neurodevelopmental disorder in humans” (Molecular Psychiatry, 2022).

T1: GST fusion protein of the GKAP C-terminus (50 C-terminal residues), P97836-4
T1 chain: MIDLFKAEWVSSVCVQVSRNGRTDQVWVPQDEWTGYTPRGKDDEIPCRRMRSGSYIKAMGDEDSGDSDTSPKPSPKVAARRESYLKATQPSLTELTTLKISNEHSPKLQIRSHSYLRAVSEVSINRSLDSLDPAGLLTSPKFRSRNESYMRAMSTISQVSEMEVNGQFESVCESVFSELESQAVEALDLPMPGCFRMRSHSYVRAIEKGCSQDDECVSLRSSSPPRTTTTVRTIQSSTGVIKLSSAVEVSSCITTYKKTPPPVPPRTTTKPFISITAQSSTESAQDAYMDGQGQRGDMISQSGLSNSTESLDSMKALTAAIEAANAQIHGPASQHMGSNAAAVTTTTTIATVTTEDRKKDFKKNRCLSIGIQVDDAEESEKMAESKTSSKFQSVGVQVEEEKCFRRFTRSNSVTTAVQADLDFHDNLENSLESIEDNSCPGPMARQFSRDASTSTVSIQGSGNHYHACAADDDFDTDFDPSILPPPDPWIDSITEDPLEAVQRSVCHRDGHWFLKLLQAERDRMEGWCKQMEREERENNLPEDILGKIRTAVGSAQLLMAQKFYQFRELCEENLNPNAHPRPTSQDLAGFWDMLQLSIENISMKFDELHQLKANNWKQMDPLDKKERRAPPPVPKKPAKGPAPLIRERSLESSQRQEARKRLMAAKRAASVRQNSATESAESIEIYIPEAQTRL


Molecular target: T1, GST fusion protein of the GKAP …
Assay: GST pulldown, Western blot quantification
Settings: chain shown with the change; 293T cell lysates; four independent experiments; parent: est. 3.8; read off a plot

Binder	response (Precipitate / Input)
mCherry-tagged human Shank2a (WT), Q9UPX8-3 S610Y (protein) MPRSPTSSEDEMAQSFSDYSVGSESDSSKEETIYDTIRATAEKPGGARTEESQGNTLVIRVVIHDLQQTKCIRFNPDATVWVAKQRILCTLTQSLKDVLNYGLFQPASNGRDGKFLDEERLLREYPQPVGEGVPSLEFRYKKRVYKQASLDEKQLAKLHTKTNLKKCMDHIQHRLVEKITKMLDRGLDPNFHDPETGETPLTLAAQLDDSVEVIKALKNGGAHLDFRAKDGMTALHKAARARNQVALKTLLELGASPDYKDSYGLTPLYHTAIVGGDPYCCELLLHEHATVCCKDENGWHEIHQACRYGHVQHLEHLLFYGADMSAQNASGNTALHICALYNQDSCARVLLFRGGNKELKNYNSQTPFQVAIIAGNFELAEYIKNHKETDIVPFREAPAYSNRRRRPPNTLAAPRVLLRSNSDNNLNASAPDWAVCSTATSHRSLSPQLLQQMPSKPEGAAKTIGSYVPGPRSRSPSLNRLGGAGEDGKRPQPLWHVGSPFALGANKDSLSAFEYPGPKRKLYSAVPGRLFVAVKPYQPQVDGEIPLHRGDRVKVLSIGEGGFWEGSARGHIGWFPAECVEEVQCKPRDSQAETRADRSKKLFRHYTVGYYDSFDTSSDCIIEEKTVVLQKKDNEGFGFVLRGAKADTPIEEFTPTPAFPALQYLESVDEGGVAWQAGLRTGDFLIEVNNENVVKVGHRQVVNMIRQGGNHLVLKVVTVTRNLDPDDTARKKAPPPPKRAPTTALTLRSKSMTSELEELVDKASVRKKKDKPEEIVPASKPSRAAENMAVEPRVATIKQRPSSRCFPAGSDMNSVYERQGIAVMTPTVPGSPKAPFLGIPRGTMRRQKSIDSRIFLSGITEEERQFLAPPMLKFTRSLSMPDTSEDIPPPPQSVPPSPPPPSPTTYNCPKSPTPRVYGTIKPAFNQNSAAKVSPATRSDTVATMMREKGMYFRRELDRYSLDSEDLYSRNAGPQANFRNKRGQMPENPYSEVGKIASKAVYVPAKPARRKGMLVKQSNVEDSPEKTCSIPIPTIIVKEPSTSSSGKSSQGSSMEIDPQAPEPPSQLRPDESLTVSSPFAAAIAGAVRDREKRLEARRNSPAFLSTDLGDEDVGLGPPAPRTRPSMFPEEGDFADEDSAEQLSSPMPSATPREPENHFVGGAEASAPGEAGRPLNSTSKAQGPESSPAVPSASSGTAGPGNYVHPLTGRLLDPSSPLALALSARDRAMKESQQGPKGEAPKADLNKPLYIDTKMRPSLDAGFPTVTRQNTRGPLRRQETENKYETDLGRDRKGDDKKNMLIDIMDTSQQKSAGLLMVHTVDATKLDNALQEEDEKAEVEMKPDSSPSEVPEGVSETEGALQISAAPEPTTVPGRTIVAVGSMEEAVILPFRIPPPPLASVDLDEDFIFTEPLPPPLEFANSFDIPDDRAASVPALSDLVKQKKSDTPQSPSLNSSQPTNSADSKKPASLSNCLPASFLPPPESFDAVADSGIEEVDSRSSSDHHLETTSTISTVSSISTLSSEGGENVDTCTVYADGQAFMVDKPPVPPKPKMKPIIHKSNALYQDALVEEDVDSFVIPPPAPPPPPGSAQPGMAKVLQPRTSKLWGDVTEIKSPILSGPKANVISELNSILQQMNREKLAKPGEGLDSPMGAKSASLAPRSPEIMSTISGTRSTTVTFTVRPGTSQPITLQSRPPDYESRTSGTRRAPSPVVSPTEMNKETLPAPLSAATASPSPALSDVFSLPSQPPSGDLFGLNPAGRSRSPSPSILQQPISNKPFTTKPVHLWTKPDVADWLESLNLGEHKEAFMDNEIDGSHLPNLQKEDLIDLGVTRVGHRMNIERALKQLLDR	2.4
mCherry-tagged human Shank2a (WT), Q9UPX8-3 N690S (protein) MPRSPTSSEDEMAQSFSDYSVGSESDSSKEETIYDTIRATAEKPGGARTEESQGNTLVIRVVIHDLQQTKCIRFNPDATVWVAKQRILCTLTQSLKDVLNYGLFQPASNGRDGKFLDEERLLREYPQPVGEGVPSLEFRYKKRVYKQASLDEKQLAKLHTKTNLKKCMDHIQHRLVEKITKMLDRGLDPNFHDPETGETPLTLAAQLDDSVEVIKALKNGGAHLDFRAKDGMTALHKAARARNQVALKTLLELGASPDYKDSYGLTPLYHTAIVGGDPYCCELLLHEHATVCCKDENGWHEIHQACRYGHVQHLEHLLFYGADMSAQNASGNTALHICALYNQDSCARVLLFRGGNKELKNYNSQTPFQVAIIAGNFELAEYIKNHKETDIVPFREAPAYSNRRRRPPNTLAAPRVLLRSNSDNNLNASAPDWAVCSTATSHRSLSPQLLQQMPSKPEGAAKTIGSYVPGPRSRSPSLNRLGGAGEDGKRPQPLWHVGSPFALGANKDSLSAFEYPGPKRKLYSAVPGRLFVAVKPYQPQVDGEIPLHRGDRVKVLSIGEGGFWEGSARGHIGWFPAECVEEVQCKPRDSQAETRADRSKKLFRHYTVGSYDSFDTSSDCIIEEKTVVLQKKDNEGFGFVLRGAKADTPIEEFTPTPAFPALQYLESVDEGGVAWQAGLRTGDFLIEVNSENVVKVGHRQVVNMIRQGGNHLVLKVVTVTRNLDPDDTARKKAPPPPKRAPTTALTLRSKSMTSELEELVDKASVRKKKDKPEEIVPASKPSRAAENMAVEPRVATIKQRPSSRCFPAGSDMNSVYERQGIAVMTPTVPGSPKAPFLGIPRGTMRRQKSIDSRIFLSGITEEERQFLAPPMLKFTRSLSMPDTSEDIPPPPQSVPPSPPPPSPTTYNCPKSPTPRVYGTIKPAFNQNSAAKVSPATRSDTVATMMREKGMYFRRELDRYSLDSEDLYSRNAGPQANFRNKRGQMPENPYSEVGKIASKAVYVPAKPARRKGMLVKQSNVEDSPEKTCSIPIPTIIVKEPSTSSSGKSSQGSSMEIDPQAPEPPSQLRPDESLTVSSPFAAAIAGAVRDREKRLEARRNSPAFLSTDLGDEDVGLGPPAPRTRPSMFPEEGDFADEDSAEQLSSPMPSATPREPENHFVGGAEASAPGEAGRPLNSTSKAQGPESSPAVPSASSGTAGPGNYVHPLTGRLLDPSSPLALALSARDRAMKESQQGPKGEAPKADLNKPLYIDTKMRPSLDAGFPTVTRQNTRGPLRRQETENKYETDLGRDRKGDDKKNMLIDIMDTSQQKSAGLLMVHTVDATKLDNALQEEDEKAEVEMKPDSSPSEVPEGVSETEGALQISAAPEPTTVPGRTIVAVGSMEEAVILPFRIPPPPLASVDLDEDFIFTEPLPPPLEFANSFDIPDDRAASVPALSDLVKQKKSDTPQSPSLNSSQPTNSADSKKPASLSNCLPASFLPPPESFDAVADSGIEEVDSRSSSDHHLETTSTISTVSSISTLSSEGGENVDTCTVYADGQAFMVDKPPVPPKPKMKPIIHKSNALYQDALVEEDVDSFVIPPPAPPPPPGSAQPGMAKVLQPRTSKLWGDVTEIKSPILSGPKANVISELNSILQQMNREKLAKPGEGLDSPMGAKSASLAPRSPEIMSTISGTRSTTVTFTVRPGTSQPITLQSRPPDYESRTSGTRRAPSPVVSPTEMNKETLPAPLSAATASPSPALSDVFSLPSQPPSGDLFGLNPAGRSRSPSPSILQQPISNKPFTTKPVHLWTKPDVADWLESLNLGEHKEAFMDNEIDGSHLPNLQKEDLIDLGVTRVGHRMNIERALKQLLDR	2.8
